Experimental data: PMC3381513
Like-named read-outs stand apart in the source and are kept apart here.

Columns and labels:
[1] = biological target: T1, CUGBP1 RRM1/2 (human, UniProt Q92879 14-187); assay: crystal structure
[2] = biological target: T1, CUGBP1 RRM1/2; assay: EMSA
[3] = biological target: T1, CUGBP1 RRM1/2; assay: filter binding
[4] = biological target: T1, CUGBP1 RRM1/2; assay: filter binding; remark: listed apart in the source
[5] = biological target: T1, CUGBP1 RRM1/2; assay: filter binding; remark: listed apart in the source
[6] = biological target: CUGBP1 RRM1 (ITC) (human, UniProt Q92879 16-99); assay: ITC
Sequence of CUGBP1 RRM1 (ITC) (Q92879 16-99): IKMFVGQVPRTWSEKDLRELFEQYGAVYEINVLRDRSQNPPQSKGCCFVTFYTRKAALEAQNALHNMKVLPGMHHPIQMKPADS

[7] = biological target: CUGBP1 RRM2 (ITC) (human, UniProt Q92879 109-187); assay: ITC
Sequence of CUGBP1 RRM2 (ITC) (Q92879 109-187): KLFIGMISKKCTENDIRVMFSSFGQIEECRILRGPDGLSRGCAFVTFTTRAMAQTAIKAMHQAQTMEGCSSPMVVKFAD

T1 sequence (Q92879 14-187): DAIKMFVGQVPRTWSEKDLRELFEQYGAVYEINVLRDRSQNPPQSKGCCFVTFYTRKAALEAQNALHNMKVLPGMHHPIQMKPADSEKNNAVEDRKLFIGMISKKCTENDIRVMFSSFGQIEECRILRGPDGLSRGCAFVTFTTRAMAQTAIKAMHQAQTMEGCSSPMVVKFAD

GUUGUUUUUGUU (ssRNA, U8 = 5-bromouridine) [BrU8 sequence 2]
binding result [1]: binds

UGUGUGUUGUGUG (ssRNA) [sequence 3, 13-mer]
binding result [2]: binds

GUUAUUUUUAUU (ssRNA) [A4A10]
binding result [3]: no binding

GUUGUUUUUGUU (ssRNA, U2 = 5-bromouridine) [BrU2 sequence 2]
binding result [1]: binds

GUUUUUUUUUUU (ssRNA) [U4U10]
binding result [3]: no binding

GUUGCUUUUGCU (ssRNA) [C5C11]
binding signal [4]: ~5 fold loss in affinity vs N2

GUUAUUUUUGUU (ssRNA) [A4G10]
binding signal [5]: 4.4 fold reduction in binding vs N2

UUGUU (ssRNA) [UUGUU 5-nt]
Kd [6]: 29 µM | Kd [7]: 45 µM

GUUGUUUUUAUU (ssRNA) [G4A10]
binding signal [5]: 2.5 fold reduction in binding vs N2

GUUCUUUUUCUU (ssRNA) [C4C10]
binding result [3]: no binding
